Source: article PMC7367873, “Dissecting the sequence determinants for dephosphorylation by the catalytic subunits of phosphatases PP1 and PP2A” (Nature Communications, 2020)
Each block holds one molecule with its values, some of them ahead of it.

Columns and labels:
[1] = tested on: GFP-14-3-3β and its binding proteins; assay: GFP-14-3-3β co-IP with LC-MS/MS label-free quantification, untreated versus PP1c-treated; parameters: species or system human; settings: pairwise comparison PP1 vs untreated, 3 replicates each
[2] = tested on: GFP-14-3-3β; assay: GFP-14-3-3β co-IP with LC-MS/MS, untreated GFP-14-3-3β versus GFP control (14-3-3 interactome); type: binding, human; settings: 3 replicates each
[3] = student's t-test, LC-MS/MS label-free quantification
[4] = pairwise comparison untreated GFP-14-3-3β vs GFP, student's t-test, LC-MS/MS label-free quantification

B1: MYPN (protein, UniProt Q86TC9 1-1320, looked up)
Myopalladin: MQDDSIEASTSISQLLRESYLAETRHRGNNERSRAEPSSNPCHFGSPSGAAEGGGGQDDLPDLSAFLSQEELDESVNLARLAINYDPLEKADETQARKRLSPDQMKHSPNLSFEPNFCQDNPRSPTSSKESPQEAKRPQYCSETQSKKVFLNKAADFIEELSSLFKSHSSKRIRPRACKNHKSKLESQNKVMQENSSSFSDLSERRERSSVPIPIPADTRDNEVNHALEQQEAKRREAEQAASEAAGGDTTPGSSPSSLYYEEPLGQPPRFTQKLRSREVPEGTRVQLDCIVVGIPPPQVRWYCEGKELENSPDIHIVQAGNLHSLTIAEAFEEDTGRYSCFASNIYGTDSTSAEIYIEGVSSSDSEGDPNKEEMNRIQKPNEVSSPPTTSAVIPPAVPQAQHLVAQPRVATIQQCQSPTNYLQGLDGKPIIAAPVFTKMLQNLSASEGQLVVFECRVKGAPSPKVEWYREGTLIEDSPDFRILQKKPRSMAEPEEICTLVIAEVFAEDSGCFTCTASNKYGTVSSIAQLHVRGNEDLSNNGSLHSANSTTNLAAIEPQPSPPHSEPPSVEQPPKPKLEGVLVNHNEPRSSSRIGLRVHFNLPEDDKGSEASSEAGVVTTRQTRPDSFQERFNGQATKTPEPSSPVKEPPPVLAKPKLDSTQLQQLHNQVLLEQHQLQNPPPSSPKEFPFSMTVLNSNAPPAVTTSSKQVKAPSSQTFSLARPKYFFPSTNTTAATVAPSSSPVFTLSSTPQTIQRTVSKESLLVSHPSVQTKSPGGLSIQNEPLPPGPTEPTPPPFTFSIPSGNQFQPRCVSPIPVSPTSRIQNPVAFLSSVLPSLPAIPPTNAMGLPRSAPSMPSQGLAKKNTKSPQPVNDDNIRETKNAVIRDLGKKITFSDVRPNQQEYKISSFEQRLMNEIEFRLERTPVDESDDEIQHDEIPTGKCIAPIFDKRLKHFRVTEGSPVTFTCKIVGIPVPKVYWFKDGKQISKRNEHCKMRREGDGTCSLHIESTTSDDDGNYTIMAANPQGRISCSGHLMVQSLPIRSRLTSAGQSHRGRSRVQERDKEPLQERFFRPHFLQAPGDMVAHEGRLCRLDCKVSGLPPPELTWLLNGQPVLPDASHKMLVRETGVHSLLIDPLTQRDAGTYKCIATNKTGQNSFSLELSVVAKEVKKAPVILEKLQNCGVPEGHPVRLECRVIGMPPPVFYWKKDNETIPCTRERISMHQDTTGYACLLIQPAKKSDAGWYTLSAKNEAGIVSCTARLDIYAQWHHQIPPPMSVRPSGSRYGSLTSKGLDIFSAFSSMESTMVYSCSSRSVVESDEL
Difference (log2), PP1 vs untreated ([1]; log2 difference, label-free quantification): 1.556
Difference (log2), untreated vs GFP ([2]; log2 difference, pairwise comparison untreated vs GFP, label-free quantification): -0.08833

B2: HIRIP3 (protein, UniProt Q9BW71 1-556, looked up)
HIRA-interacting protein 3: MAREKEMQEFTRSFFRGRPDLSTLTHSIVRRRYLAHSGRSHLEPEEKQALKRLVEEELLKMQVDEAASREDKLDLTKKGKRPPTPCSDPERKRFRFNSESESGSEASSPDYFGPPAKNGVAAEVSPAKEENPRRASKAVEESSDEERQRDLPAQRGEESSEEEEKGYKGKTRKKPVVKKQAPGKASVSRKQAREESEESEAEPVQRTAKKVEGNKGTKSLKESEQESEEEILAQKKEQREEEVEEEEKEEDEEKGDWKPRTRSNGRRKSAREERSCKQKSQAKRLLGDSDSEEEQKEAASSGDDSGRDREPPVQRKSEDRTQLKGGKRLSGSSEDEEDSGKGEPTAKGSRKMARLGSTSGEESDLEREVSDSEAGGGPQGERKNRSSKKSSRKGRTRSSSSSSDGSPEAKGGKAGSGRRGEDHPAVMRLKRYIRACGAHRNYKKLLGSCCSHKERLSILRAELEALGMKGTPSLGKCRALKEQREEAAEVASLDVANIISGSGRPRRRTAWNPLGEAAPPGELYRRTLDSDEERPRPAPPDWSHMRGIISSDGESN
Difference (log2), PP1 vs untreated [1, 3]: -2.4581 log2
Difference (log2), untreated vs GFP [2, 4]: 0.3778 log2

B5: CLASP2 (protein, UniProt O75122 1-1294, looked up)
CLIP-associating protein 2: MAMGDDKSFDDEESVDGNRPSSAASAFKVPAPKTSGNPANSARKPGSAGGPKVGGASKEGGAGAVDEDDFIKAFTDVPSIQIYSSRELEETLNKIREILSDDKHDWDQRANALKKIRSLLVAGAAQYDCFFQHLRLLDGALKLSAKDLRSQVVREACITVAHLSTVLGNKFDHGAEAIVPTLFNLVPNSAKVMATSGCAAIRFIIRHTHVPRLIPLITSNCTSKSVPVRRRSFEFLDLLLQEWQTHSLERHAAVLVETIKKGIHDADAEARVEARKTYMGLRNHFPGEAETLYNSLEPSYQKSLQTYLKSSGSVASLPQSDRSSSSSQESLNRPFSSKWSTANPSTVAGRVSAGSSKASSLPGSLQRSRSDIDVNAAAGAKAHHAAGQSVRSGRLGAGALNAGSYASLEDTSDKLDGTASEDGRVRAKLSAPLAGMGNAKADSRGRSRTKMVSQSQPGSRSGSPGRVLTTTALSTVSSGVQRVLVNSASAQKRSKIPRSQGCSREASPSRLSVARSSRIPRPSVSQGCSREASRESSRDTSPVRSFQPLASRHHSRSTGALYAPEVYGASGPGYGISQSSRLSSSVSAMRVLNTGSDVEEAVADALKKPARRRYESYGMHSDDDANSDASSACSERSYSSRNGSIPTYMRQTEDVAEVLNRCASSNWSERKEGLLGLQNLLKNQRTLSRVELKRLCEIFTRMFADPHGKRVFSMFLETLVDFIQVHKDDLQDWLFVLLTQLLKKMGADLLGSVQAKVQKALDVTRESFPNDLQFNILMRFTVDQTQTPSLKVKVAILKYIETLAKQMDPGDFINSSETRLAVSRVITWTTEPKSSDVRKAAQSVLISLFELNTPEFTMLLGALPKTFQDGATKLLHNHLRNTGNGTQSSMGSPLTRPTPRSPANWSSPLTSPTNTSQNTLSPSAFDYDTENMNSEDIYSSLRGVTEAIQNFSFRSQEDMNEPLKRDSKKDDGDSMCGGPGMSDPRAGGDATDSSQTALDNKASLLHSMPTHSSPRSRDYNPYNYSDSISPFNKSALKEAMFDDDADQFPDDLSLDHSDLVAELLKELSNHNERVEERKIALYELMKLTQEESFSVWDEHFKTILLLLLETLGDKEPTIRALALKVLREILRHQPARFKNYAELTVMKTLEAHKDPHKEVVRSAEEAASVLATSISPEQCIKVLCPIIQTADYPINLAAIKMQTKVIERVSKETLNLLLPEIMPGLIQGYDNSESSVRKACVFCLVAVHAVIGDELKPHLSQLTGSKMKLLNLYIKRAQTGSGGADPTTDVSGQS
Difference (log2), PP1 vs untreated [1, 3]: -2.4301 log2
Difference (log2), untreated vs GFP [2, 4]: 2.306 log2

Now from value to molecule, other results behind:

Difference (log2), PP1 vs untreated [1, 3]: -2.404 log2
B3: PARD3 (protein, UniProt Q8TEW0 1-1356, looked up)
Partitioning defective 3 …: MKVTVCFGRTRVVVPCGDGHMKVFSLIQQAVTRYRKAIAKDPNYWIQVHRLEHGDGGILDLDDILCDVADDKDRLVAVFDEQDPHHGGDGTSASSTGTQSPEIFGSELGTNNVSAFQPYQATSEIEVTPSVLRANMPLHVRRSSDPALIGLSTSVSDSNFSSEEPSRKNPTRWSTTAGFLKQNTAGSPKTCDRKKDENYRSLPRDTSNWSNQFQRDNARSSLSASHPMVGKWLEKQEQDEDGTEEDNSRVEPVGHADTGLEHIPNFSLDDMVKLVEVPNDGGPLGIHVVPFSARGGRTLGLLVKRLEKGGKAEHENLFRENDCIVRINDGDLRNRRFEQAQHMFRQAMRTPIIWFHVVPAANKEQYEQLSQSEKNNYYSSRFSPDSQYIDNRSVNSAGLHTVQRAPRLNHPPEQIDSHSRLPHSAHPSGKPPSAPASAPQNVFSTTVSSGYNTKKIGKRLNIQLKKGTEGLGFSITSRDVTIGGSAPIYVKNILPRGAAIQDGRLKAGDRLIEVNGVDLVGKSQEEVVSLLRSTKMEGTVSLLVFRQEDAFHPRELNAEPSQMQIPKETKAEDEDIVLTPDGTREFLTFEVPLNDSGSAGLGVSVKGNRSKENHADLGIFVKSIINGGAASKDGRLRVNDQLIAVNGESLLGKTNQDAMETLRRSMSTEGNKRGMIQLIVARRISKCNELKSPGSPPGPELPIETALDDRERRISHSLYSGIEGLDESPSRNAALSRIMGESGKYQLSPTVNMPQDDTVIIEDDRLPVLPPHLSDQSSSSSHDDVGFVTADAGTWAKAAISDSADCSLSPDVDPVLAFQREGFGRQSMSEKRTKQFSDASQLDFVKTRKSKSMDLGIADETKLNTVDDQKAGSPSRDVGPSLGLKKSSSLESLQTAVAEVTLNGDIPFHRPRPRIIRGRGCNESFRAAIDKSYDKPAVDDDDEGMETLEEDTEESSRSGRESVSTASDQPSHSLERQMNGNQEKGDKTDRKKDKTGKEKKKDRDKEKDKMKAKKGMLKGLGDMFRFGKHRKDDKIEKTGKIKIQESFTSEEERIRMKQEQERIQAKTREFRERQARERDYAEIQDFHRTFGCDDELMYGGVSSYEGSMALNARPQSPREGHMMDALYAQVKKPRNSKPSPVDSNRSTPSNHDRIQRLRQEFQQAKQDEDVEDRRRTYSFEQPWPNARPATQSGRHSVSVEVQMQRQRQEERESSQQAQRQYSSLPRQSRKNASSVSQDSWEQNYSPGEGFQSAKENPRYSSYQGSRNGYLGGHGFNARVMLETQELLRQEQRRKEQQMKKQPPSEGPSNYDSYKKVQDPSYAPPKGPFRQDVPPSPSQVARLNRLQTPEKGRPFYS
Difference (log2), untreated vs GFP [2, 4]: 5.534 log2

Difference (log2), PP1 vs untreated [1, 3]: -2.475 log2
B4: SAFB (protein, UniProt Q15424 2-915, looked up)
Scaffold attachment factor B1: AETLSGLGDSGAAGAAALSSASSETGTRRLSDLRVIDLRAELRKRNVDSSGNKSVLMERLKKAIEDEGGNPDEIEITSEGNKKTSKRSSKGRKPEEEGVEDNGLEENSGDGQEDVETSLENLQDIDIMDISVLDEAEIDNGSVADCVEDDDADNLQESLSDSRELVEGEMKELPEQLQEHAIEDKETINNLDTSSSDFTILQEIEEPSLEPENEKILDILGETCKSEPVKEESSELEQPFAQDTSSVGPDRKLAEEEDLFDSAHPEEGDLDLASESTAHAQSSKADSLLAVVKREPAEQPGDGERTDCEPVGLEPAVEQSSAASELAEASSEELAEAPTEAPSPEARDSKEDGRKFDFDACNEVPPAPKESSTSEGADQKMSSPEDDSDTKRLSKEEKGRSSCGRNFWVSGLSSTTRATDLKNLFSKYGKVVGAKVVTNARSPGARCYGFVTMSTAEEATKCINHLHKTELHGKMISVEKAKNEPVGKKTSDKRDSDGKKEKSSNSDRSTNLKRDDKCDRKDDAKKGDDGSGEKSKDQDDQKPGPSERSRATKSGSRGTERTVVMDKSKGVPVISVKTSGSKERASKSQDRKSASREKRSVVSFDKVKEPRKSRDSESHSRVRERSEREQRMQAQWEREERERLEIARERLAFQRQRLERERMERERLERERMHVEHERRREQERIHREREELRRQQELRYEQERRPAVRRPYDLDRRDDAYWPEAKRAALDERYHSDFNRQDRFHDFDHRDRGRYPDHSVDRREGSRSMMGEREGQHYPERHGGPERHGRDSRDGWGGYGSDKRMSEGRGLPPPPRRDWGDHGRREDDRSWQGTADGGMMDRDHKRWQGGERSMSGHSGPGHMMNRGGMSGRGSFAPGGASRGHPIPHGGMQGGFGGQSRGSRPSDARFTRRY
Difference (log2), untreated vs GFP [2, 4]: 3.699 log2
